Target: recombinant extracellular domain of rabies virus glycoprotein (RABVG, CVS strain) with T4 fibritin t (rabies virus (CVS strain))
Assay: SEC; rRABVG on Superdex 200 10/300 GL after HisTrap; single peak

In the case of “recombinant extracellular domain of rabies virus glycoprotein (RABVG, CVS strain) with T4 fibritin t (domain or fragment)”, the stoichiometry N is reported as 3.

From publication PMC8624154
